Patent US20170121397A1 (PROTHENA BIOSCIENCES, published 2017)
Ends that are not written are not given here.

Legend:
[1] = target: T1, full length human medin (50 aa) (human); test: Biacore SPR, antibody captured on anti-mouse chip, medin as analyte, global 1:1 fit
T1 construct: Synthetic peptide (American Peptide, Cat # 366587 in the Western blot); Monomer and multimer/oligomer bands seen in Western blot; also called medin peptide; full-length human medin peptide
T1 peptide: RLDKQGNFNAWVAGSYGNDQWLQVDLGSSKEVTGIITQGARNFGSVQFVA
Method: Anti-mouse antibody (GE Heathcare) was immobilized on a sensor chip […] (lacking dextran chains) via amine coupling following the instructions provided in the GE Healthcare anti-mouse kit. Anti-medin monoclonal antibodies of interest were then captured on the chip at a level that ensured a maximum binding of analyte at 30-50 RU. Various concentrations of analyte, full-length human medin (50 aa, FIGS. 1A and B) were passed over the captured ligand at 30 ul/min in running buffer (Hepes buffered saline+0.05% P-20, 1 mg/mL BSA) in either 2-fold or 3-fold dilutions, depending on the magnitude of the spanned concentration range. For each concentration, the reaction proceeded for a period of time needed for the higher analyte concentrations to reach equilibrium during association, as well as at least 10% of signal to decay during dissociation. At least one concentration (not the highest or lowest) was run in duplicate. […] The data were doubled referenced to both an irrelevant sensor not containing the medin antibodies and a 0 nM concentration of medin to account for the dissociation of antibodies from the anti-mouse sensor. The data was then analyzed with a global 1:1 fit using the Biacore software.

[2] = target: T2, human lactadherin polypeptide (Sino Biological) (human, UniProt Q08431 24-387); test: direct ELISA, plate coated with human lactadherin at 2.5 ug/mL, goat anti-mouse HRP, ABTS, OD 405 nm
T2 construct: Bought protein; also called MFG-E8; synthetic lactadherin polypeptide
T2 sequence (looked up): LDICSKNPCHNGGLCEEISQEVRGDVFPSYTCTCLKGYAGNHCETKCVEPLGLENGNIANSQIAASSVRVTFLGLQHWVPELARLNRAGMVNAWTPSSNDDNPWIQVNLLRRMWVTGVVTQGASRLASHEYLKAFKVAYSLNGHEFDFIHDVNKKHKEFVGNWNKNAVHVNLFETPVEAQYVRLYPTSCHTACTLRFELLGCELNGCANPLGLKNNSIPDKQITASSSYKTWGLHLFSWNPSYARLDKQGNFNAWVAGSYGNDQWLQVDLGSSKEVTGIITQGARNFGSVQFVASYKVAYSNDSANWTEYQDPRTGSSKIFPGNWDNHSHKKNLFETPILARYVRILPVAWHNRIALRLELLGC
Method: (§1) To further characterize antibodies of interest, ELISA titration curves were generated to determine antibody binding to human lactadherin (FIG. 1A, Sino Biological In.), full-length human medin peptide (50 aa, FIGS. 1A and B) or to the human or mouse C-terminal peptides (see FIG. 1B). Plates were coated with full length human medin, human C-terminal peptide-OVA, mouse C-terminal peptide-OVA and lactadherin at 2.5 ug/mL, 50 uL/well and incubated for about 1 hour at room temperature. The plates were then blocked with 1% BSA/PBS at room temperature. After about 15 minutes, plates were emptied and antibodies of interest were then added to the plates and after a 1 hour incubation at room temperature, the plates were washed with wash buffer. The detection antibody, goat anti-mouse antibody conjugated to horseradish peroxidase (Jackson ImmunoResearch) diluted 1:2,000 in 0.5% BSA/PBS/TBS-T was added to plates and incubated for 1 hour at room temperature. Finally, the plates were washed and then incubated with ABTS substrate (Thermo Scientific) for 15 minutes at room temperature to visualize signal and read at 405 nm on a microplate reader.

[3] = target: T1, full length human medin (50 aa); test: direct ELISA, plate coated with full length human medin at 2.5 ug/mL, goat anti-mouse HRP, ABTS, OD 405 nm
Method: as §1

[4] = target: T3, human C-terminal medin peptide (human, also: conjugated to OVA in the ELISA); test: direct ELISA, plate coated with human C-terminal peptide-OVA at 2.5 ug/mL, goat anti-mouse HRP, ABTS, OD 405 nm
T3 construct: also called human c-terminal peptide; human C-terminal peptide-OVA
T3 peptide: CGGSVQFVA
Method: as §1

[5] = target: T4, mouse C-terminal medin peptide (mouse, also: conjugated to OVA in the ELISA); test: direct ELISA, plate coated with mouse C-terminal peptide-OVA at 2.5 ug/mL, goat anti-mouse HRP, ABTS, OD 405 nm
T4 construct: also called mouse c-terminal peptide; mouse C-terminal peptide-OVA
T4 peptide: CGGHIQYVA
Method: as §1

B1: mouse monoclonal antibody 6B3 (antibody, V domains shown)
VH: QVTLKESGPGILQPSQTLSLTCSFSGFSLSTSDMGVGWIRQPSGKGLEWLAHIWWNDNKYYNIALKNRLTVSKDTSNNQVFLKIASVDTADTATYYCARLVGSWFAYWGQGTLVTVSA
VL: DIQMTQTTSSLSASLGDRVTISCRASQDISNFLSWYHQKPDGTVKLLIYYTSRLHSGVPPRFSGSGSGTDYSLTISNLEQEDIATYFCQQGKTLPPTFGGGTKLEIK
notes: Mouse hybridoma IgG raised against full-length human medin; also called m6B3; PRT6B3
B1 showed a Kd [1] of 1.04 nM, a koff [1] of 0.000951 s⁻¹ and a kon [1] of 1.11e+06 M⁻¹ s⁻¹. The “EC50 (read off the curve)” value [2] was roughly 0.2 µg/mL, the “EC50 (read off the curve)” value [3] was roughly 0.1 µg/mL and the binding result [4] was “no binding (tested: 10 ug/ml)”. B1: no binding (tested: 10 ug/ml) [5].

B2: mouse monoclonal antibody 18G1 (antibody, V domains shown)
VH: EVQLVESGGGLVKPGGSLKLSCAASGFTFSSYAMSWVRQTPEKRLEWVAGISSGDYYTYYPDTVKGRFTISRDNARNTLYLQMRSLRSEDTAMYYCVRGRGNTGPRVGYWGQGTSVTVSS
VL: DIVMTQSQKFMSTSVGDRVSVTCKASQNVGTNVAWYQQKPGQSPKALIYSASYRYSGVPDRFTGSGSGTDFTLTISNVQSEDLAEYFCQQYNSFPLTFGAGTKLELK
notes: Mouse hybridoma IgG raised against the human C-terminal medin peptide; also called m18G1; PRT18G1
For B2, the Kd [1] was 12.1 nM, the koff [1] was 0.00712 s⁻¹ and the kon [1] was 590000 M⁻¹ s⁻¹. The “EC50 (read off the curve)” value [3] was roughly 0.04 µg/mL, the “EC50 (read off the curve)” value [4] was roughly 0.07 µg/mL and the “EC50 (read off the curve)” value [5] was roughly 0.05 µg/mL.
